Experimental findings from article PMC5372681, “Study of Different Variants of Mo Enzyme crARC and the Interaction with Its Partners crCytb5-R and crCytb5-1” (International Journal of Molecular Sciences, 2017) are described below.

In assay [1] the target is crCytb5-R, Chlamydomonas reinhardtii NADH cytochrome b5 reductase (Chlamydomonas reinhardtii).
In assay [2] the target is crCytb5-1, Chlamydomonas reinhardtii cytochrome b5-1 (Chlamydomonas reinhardtii). As to the kind of experiment: SEC; each protein loaded alone; Superdex 200 10/300 GL, 50 mM phosphate buffer pH 7.2, 0.15 M NaCl, 0.75 mL/min; Mw from a calibration curve of marker proteins. A general note: Size exclusion chromatography separates by hydrodynamic size, large species first.
The target of assay [3] is crARC, Chlamydomonas reinhardtii mARC (mitochondrial Amidoxime Reducing Component), wild type (Chlamydomonas reinhardtii). Put plainly: SEC; two proteins incubated together for 10 min, then loaded; 15 pmol of each; Superdex 200 10/300 GL, 50 mM phosphate buffer pH 7.2, 0.15 M NaCl, 0.75 mL/min; peak fractions checked by SDS-PAGE.
Assay [4] has as its target crCytb5-R, Chlamydomonas reinhardtii NADH cytochrome b5 reductase (Chlamydomonas reinhardtii). The assay is described as above.
In assay [5] the target is crARC variant R276A (Chlamydomonas reinhardtii). Put plainly: SEC; each protein loaded alone; Superdex 200 10/300 GL, 50 mM phosphate buffer pH 7.2, 0.15 M NaCl, 0.75 mL/min; Mw from a calibration curve of marker proteins.
Assay [6] addresses crARC variant F210A (Chlamydomonas reinhardtii). Described as above.
Assay [7] addresses crCytb5-1, Chlamydomonas reinhardtii cytochrome b5-1 (Chlamydomonas reinhardtii).

In turn, “crARC variant E267A (enzyme; the values are: NADH-dependent HAP reduction activity (% of wild type))” gave an NADH-dependent HAP reduction activity of the crARC variant with crCytb5-1 and crCytb5-R in assay [1] of 25%.

Regarding “crCytb5-1, Chlamydomonas reinhardtii cytochrome b5-1 (natural protein)”, the stoichiometry N – broadly, a count of units in the complex or per binding partner – in assay [2] was determined as 2. In addition, in assay [3], the stoichiometry N (crCytb5-1 per crARC) is 2. The stoichiometry N (crCytb5-1 per crCytb5-R) in assay [4] is 4.

As for crARC variant R276A (enzyme), the stoichiometry N in assay [5] came out at 30 crARC units.

In assay [6], crARC variant F210A (enzyme) showed a times more oligomeric forms than the wild type of 10 times.

In the case of crARC variant E267A (enzyme), the NADH-dependent HAP reduction activity of the crARC variant with crCytb5-1 and crCytb5-R (% of the wild type activity) in assay [7] was 25.
